Source: patent US11584938B2, “Plant EPSPS mutant containing L195P and S247G mutations and encoding gene and use thereof” (GEVOTO LLC, priority 2017, dated 2023)

System: double knockout E. coli (EPSPS defective E. coli, EDCE)
Test: growth of EPSPS defective E. coli transformed by the EPSPS gene in M9 culture media containing different glyphosate concentrations
Assay type: cell-based, E. coli DH5α
Procedure, shortened: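 EPSPS-defective E. coli DH5α (EPSPS and C-P lyase knocked out, EDCE) transformed with soybean, wheat or rice EPSPS genes in pADV5; positive colonies grown on M9 glucose minimal medium with varying glyphosate concentrations. Growth observed; wild-type EPSPS and single P101S mutants served as controls.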

[1] = culture media containing 20 mM glyphosate

B1: R6: rice EPSPS mutant, SEQ ID NO: 40, mutations S267(247)G, L214(195)P and P116(101)S (protein)
chain: MASNAAAAAAKAEEIVLQPIREISGAVQLPGSKSLSNRILLLSALSEGTTVVDNLLNSEDVHYMLEALKALGLSVEADKVAKRAVVVGCGGKFPVEKDAKEEVQLFLGNAGTAMRSLTAAVTAAGGNATYVLDGVPRMRERPIGDLVVGLKQLGADVDCFLGTECPPVRVKGIGGLPGGKVKLSGSISSQYLSALLMAAPLALGDVEIEIIDKPISIPYVEMTLRLMERFGVKAEHSDSWDRFYIKGGQKYKSPGNAYVEGDASSAGYFLAGAAITGGTVTVQGCGTTSLQGDVKFAEVLEMMGAKVTWTDTSVTVTGPPREPYGKKHLKAVDVNMNKMPDVAMTLAVVALFADGPTAIRDVASWRVKETERMVAIRTELTKLGASVEEGPDYCIITPPEKLNITAIDTYDDHRMAMAFSLAACADVPVTIRDPGCTRKTFPNYFDVLSTFVRN
- EPSPS enzyme activity (concluded from growth of defective E. coli at 0 mM glyphosate): normal EPSPS enzyme activity
- growth of the E. coli transformed by the EPSPS (culture media containing 0 mM glyphosate): could grow
- growth of the E. coli transformed by the EPSPS [1]: could grow
- growth of the transformed E. coli compared with E. coli transformed by the control EPSPS named in the value [1]: superior to that of the E. coli transformed by R2
